Assay results as given in paper PMC10304477.

Experiments:
[1] = target: extracellular domain of the S protein of SARS-CoV-2 Omicron BA.1 (BA.1-S) (SARS-CoV-2 Omicron BA.1); assay: cryo-EM structure
[2] = target: extracellular domain of the S protein of SARS-CoV-2 Omicron BA.3 (BA.3-S) (SARS-CoV-2 Omicron BA.3); assay: cryo-EM structure

“extracellular domain of the S protein of SARS-CoV-2 Omicron BA.1 (BA.1-S) (domain or fragment)” gave a stoichiometry N [1] of 3.
For “extracellular domain of the S protein of SARS-CoV-2 Omicron BA.3 (BA.3-S) (domain or fragment)”, the stoichiometry N [2] was 3.
For “peptidase domain (PD) of human ACE2 (from UniProt Q9BYF1 19-615) (domain or fragment)”, the stoichiometry N (ACE2-PD per S trimer) [1] was 2.
